What is called Km is the substrate concentration at which the rate is half of its maximum. For orientation: kcat means the maximal rate divided by the concentration of active sites. Broadly, the kcat/Km is the second-order rate constant that governs catalysis at low substrate concentration.

Series [1] can be described thus: Circular dichroism spectra and thermal denaturation. Format: physicochemical. The settings on record: 220 nm, 25° C. to 95° C. The source says:
(§1) Synthetic genes and oligonucleotides were purchased from Integrated DNA Technologies or GenScript. The synthetic gene was inserted between NdeI and XhoI sites of a pET29b+ vector, containing an N-terminal hexahistidine tag followed by a TEV protease cleavage site and a C-terminal stop codon. Restriction endonucleases, Q5 PCR polymerase, and T4 ligase were purchased from NEB. Plasmid DNA, PCR products, or digested fragments were purified by Qiagen DNA purification kits. DNA sequences were analyzed by Genewiz. Coelenterazine (CTZ) was purchased from Gold Biotechnology. Diphenylterazine (DTZ), pyridyl diphenylterazine (8pyDTZ), and Furimazine (FRZ) were purchased from MedChemExpress. […] DNA and protein concentrations were determined by a NanoDrop™ small-volume 8 channel UV/vis spectrometer. […] All luminescence measurements were acquired by a Biotek Synergy Neo2T™ Multi-Mode Plate Reader. To convert relative arbitrary unit (RLU) to the number of photons, Neo2 plate reader was calibrated by determining the chemiluminescence of luminol with known quantum yield in the presence of horseradish peroxidase and hydrogen peroxide in K2CO3 aqueous solution as previously described^45. SDS PAGE and luminescence images were captured by a Bio-Rad ChemiDocT™ XRS+. Images were analyzed using the Fiji image analysis software.
Purified protein samples were prepared at 15 μM in pH 7.4 10 mM phosphate buffer. Spectra from 190 nm to 260 nm were recorded at 25° C., 50° C., 75° C., 95° C., and after cooling back to 25° C. Thermal denaturation was monitored at 220 nm from 25° C. to 95° C. […]
(In general: Circular dichroism is widely used to follow secondary structure.)

The conditions of series [2]: for Relative emission intensity: integrated luminescence intensity over the first 20 min, normalized to LuxSit, 25 μM DTZ in Tris pH 8.0 buffer; for increase of activity over LuxSit: DTZ.
Series [3] is described as follows: Luciferase activities of re-designed sequences based on LuxSit-i (Table 1). The settings on record: LuxSit-f and re-designed sequences based on LuxSit-i (Table 1). Format: biochemical. The text has this:
In another embodiment, the proteins comprise an amino acid sequence at least 30%, 35%, 40%, 45%, 50%, 55%, 60%, 65%, 70%, 75%, 80%, 85%, 90%, 91%, 92%, 93%, 94%, 95%, 96%, 97%, 98%, 99%, or 100% identical to the amino acid selected from the group consisting of SEQ ID NO:1-181, as shown in Table 1. SEQ ID NO:5-181 in Table 1 are re-designed amino acid sequences based on LuxSit-i (SEQ ID NO:2), with their luciferase activities shown.

The nature of series [4]: Luminescent quantum yield of LuxSit variants. Format: biochemical. Conditions: consuming 125 pmol of DTZ in PBS with 50 nM recombinant luciferase; estimated relative to reported quantum yield of RLuc; mean ± s.d., n = 3. Here is the method:
FIG. 10. Additional characterization of LuxSit variants. (a) Normalized emission kinetics of 15,000 intact HeLa cells expressing LuxSit-i, 100 nM purified LuxSit-i, or 100 nM purified LuxSit-f in the presence of 50 μM DTZ. The more extended emission kinetics in HeLa cells is likely due to the diffusion rate of DTZ across cell membranes. […] (c) Luminescent quantum yield was estimated from the integrated luminescence signal until completely converting 125 pmol substrates to photons in the presence of 50 nM corresponding luciferase (see Methods). All data points were plotted as the average of triplicate measurements.
For Michaelis-Menten kinetics measurements, 25 μL of serial diluted DTZ substrate in Tris pH 8.0 buffer was added into the wells of a white 96-well half-area microplate containing 25 μL of purified luciferases (final enzyme concentration: 100 nM; substrate concentration: 0.78 to 50 μM). […] The luminescence signals were monitored until the reactions were completed (0.1 s integration and measurements were taken every 5 s for a total of 40 min). […] In vitro luminescence activity measurements of LuxSit-i expressing HEK293T or HeLa cells were done similarly as 15,000 intact cells or lysates were used in the assay instead of purified luciferases. […] Data were shown as the total luminescence signal over the first 10 min. […]

Series [5] can be described thus: Michaelis-Menten kinetics measurements of purified luciferases. The settings on record: DTZ; mean (95% CI), n = 3. Format: biochemical. The procedure: For Michaelis-Menten kinetics measurements, 25 μL of serial diluted DTZ substrate in Tris pH 8.0 buffer was added into the wells of a white 96-well half-area microplate containing 25 μL of purified luciferases (final enzyme concentration: 100 nM; substrate concentration: 0.78 to 50 μM). Measurements were taken every 1 min (0.1 s integration and 10 s shaking between each interval) for a total of 20 min. Initial velocities were estimated as the average of the light intensities from the first three data points to fit the Michaelis-Menten equation. All relative arbitrary unit (RLU) per second values were converted to photon/s by the luminol-H2O2—HRP calibration method^45. Following the equation: Imax=LQY×kcat×[E], Imax is the maximal photon flux (photon s^−1), [E] is the total enzyme concentration, and V ax is the maximum photon flux per molecule (photon s^−1 molecule^−1) from the fitting of the Michaelis-Menten equation. To determine the luminescent quantum yields, 25 μL of 5 μM individual substrate in PBS was injected into 25 μL PBS containing 100 nM corresponding luciferase. DTZ was used for all LuxSit variants while CTZ was used as the substrate of native RLuc. The luminescence signals were monitored until the reactions were completed (0.1 s integration and measurements were taken every 5 s for a total of 40 min). […] To record emission spectra, 25 μL of 50 μM DTZ in PBS were injected into 25 μL of 200 nM pure luciferases and the emission spectra were collected with 0.1 s integration and 2 nm increments from 300 to 700 num. In vitro luminescence activity measurements of LuxSit-i expressing HEK293T or HeLa cells were done similarly as 15,000 intact cells or lysates were used in the assay instead of purified luciferases. To evaluate the substrate specificity, 25 μL of 50 μM substrate analogs in PBS were added to 25 μL of 200 nM indicated luciferases, and the signals were recorded over 20 min. Data were shown as the total luminescence signal over the first 10 min. We normalized the data by setting the highest emission substrate at 100%.

Substrate in series [6]: Oc1ccc(Cc2nc3c(Cc4ccccc4)nc(-c4ccc(O)cc4)cn3c2O)cc1
Kind of series: Michaelis-Menten kinetics of native Renilla luciferase (RLuc) with CTZ. It is filed as biochemical, Renilla reniformis. Conditions: other: substrate CTZ; Table 3; pH 8.0.
From the text: as §1
For Michaelis-Menten kinetics measurements, 25 μL of serial diluted DTZ substrate in Tris pH 8.0 buffer was added into the wells of a white 96-well half-area microplate containing 25 μL of purified luciferases (final enzyme concentration: 100 nM; substrate concentration: 0.78 to 50 μM). […] The luminescence signals were monitored until the reactions were completed (0.1 s integration and measurements were taken every 5 s for a total of 40 min). […] In vitro luminescence activity measurements of LuxSit-i expressing HEK293T or HeLa cells were done similarly as 15,000 intact cells or lysates were used in the assay instead of purified luciferases. […]

B1: LuxSit: de novo designed DTZ luciferase, 117 residues, SEQ ID NO:1 (protein)
chain: MSEEQIRQFLRRFYEALDSGDADTAASLFHPGVTIHLWDGVTFTSREEFREWFERLFSTRKDAQREIKSLEVRGDTVEVHVQLHATHNGQKHTVDATHHWHFRGNRVTEMRVHINPTG
modifications: VARIANT 1 optionally absent; VARIANT 118 optionally absent
As for B1, the “thermal stability (CD melting)” value in series [1] is “not fully unfolded at 95 °C”. In series [2], the Relative emission intensity is listed as 1. The same molecule showed an Activity in series [3] of 75.3.

B2: LuxSit-f: LuxSit variant A96M/M110V, SEQ ID NO:3, strong initial flash emission (protein)
chain: MSEEQIRQFLRRFYEALDSGDADTAASLFHPGVTIHLWDGVTFTSREEFREWFERLFSTRKDAQREIKSLEVRGDTVEVHVQLHATHNGQKHTVDMTHHWHFRGNRVTEVRVHINPTG
modifications: VARIANT 1 optionally absent; VARIANT 118 optionally absent
Consider B2, for which, in series [1], the “thermal stability (CD melting)” value is “thermostable”. Moreover, the “LQY (luminescent quantum yield)” value in series [4] was 10.9 ± 1.5%. Besides, the Relative emission intensity in series [2] is 60.9. Also, the Activity in series [3] came to 534.5.

B3: A96M: LuxSit mutant A96M (protein)
chain: MSEEQIRQFLRRFYEALDSGDADTAASLFHPGVTIHLWDGVTFTSREEFREWFERLFSTRKDAQREIKSLEVRGDTVEVHVQLHATHNGQKHTVDMTHHWHFRGNRVTEMRVHINPTG
modifications: VARIANT 1 optionally absent; VARIANT 118 optionally absent
Turning to B3, in series [2], the “increase of activity over LuxSit” value worked out at 16 fold and the Relative emission intensity was determined as 16.4.

B4: M110V: LuxSit mutant M110V (protein)
chain: MSEEQIRQFLRRFYEALDSGDADTAASLFHPGVTIHLWDGVTFTSREEFREWFERLFSTRKDAQREIKSLEVRGDTVEVHVQLHATHNGQKHTVDATHHWHFRGNRVTEVRVHINPTG
modifications: VARIANT 1 optionally absent; VARIANT 118 optionally absent
Take B4: in series [5], the Michaelis constant (Km) worked out at 30.3 µM and the Vmax is on record as 7.1(6.2-8.4) ×10^−2 photon s^−1 molecule^−1. In addition, in series [2], the “increase of activity over LuxSit” value is listed as 19 fold and the Relative emission intensity stood at 19.3.

B5: native Renilla reniformis luciferase (RLuc) (Renilla reniformis) (protein)
chain: MTSKVYDPEQRKRMITGPQWWARCKQMNVLDSFINYYDSEKHAENAVIFLHGNAASSYLWRHVVPHIEPVARCIIPDLIGMGKSGKSGNGSYRLLDHYKYLTAWFELLNLPKKIIFVGHDWGACLAFHYSYEHQDKIKAIVHAESVVDVIESWDEWPDIEEDIALIKSEEGEKMVLENNFFVETMLPSKIMRKLEPEEFAAYLEPFKEKGEVRRPTLSWPREIPLVKGGKPDVVQIVRNYNAYLRASDDLPKMFIESDPGFFSNAIVEGAKKFPNTEFVKVKGLHFSQEDAPDEMGKYIKSFVERVLKNEQ
notes: host and tag of RLuc not clearly stated
Turning to B5, in series [6], the Michaelis constant (Km) stood at 1.5 µM, the kcat worked out at 4.9 s⁻¹ and the kcat/Km was found to be 3.3e+06 M⁻¹ s⁻¹.
